According to paper PMC10786315 (Proceedings of the National Academy of Sciences of the …, 2024):

Molecular target: the molecule itself
Test: SEC

B1: LctR (LctP Regulator, CJ1608) (natural protein, C. jejuni, UniProt Q0P820 1-295, looked up)
chain: MKVLIIENEIYLAQSISIKLSDAGYSCEIINSFDEYNGEKYYDIILLSTNTNNFLKAVGQFKHSIIILLISYISTDTVSNPLKLGASDYIQKPFMIEELIRKIKHYQDFRKLSILNKAYQSYIKSRLETIKIPEYNYKKLKLPLILKSNKQSSADAFVFNYANECDITLSFIDLTSTNSVEKVMKLPTENNLLFLSNFQALKAAEKEKLLDFIQNKNVILHTNSNTDDLKINCINLNDNEKNINSNEILTIDEYVKYVIINYQNIFPDTDLSKKLGISRKSLWEKRKKYEISKKK
- stoichiometry N: 2
